Data published in paper PMC4837482, “The complex binding mode of the peptide hormone H2 relaxin to its receptor RXFP1” (Nature Communications, 2016).
Positions count from the first letter of the chain named.

What was measured:
Assay in all cases: cAMP activity assay (pCRE β-galactosidase reporter), transfected HEK293T cells
Assay type in all cases: cell-based
RXFP1 E67A^ins = target: T1, RXFP1 E67A^ins (Homo sapiens, UniProt Q9HBX9, INS89A); conditions: construct E67A^ins, ±s.e.m.
T1 construct: transiently transfected human embryonic kidney (HEK) 293T cells expressing full-length RXFP1 and mutants; expressed in transfected cells; host or cells: HEK293T
T1 sequence (Q9HBX9 with tags, fused parts or gaps INS89A limits assumed): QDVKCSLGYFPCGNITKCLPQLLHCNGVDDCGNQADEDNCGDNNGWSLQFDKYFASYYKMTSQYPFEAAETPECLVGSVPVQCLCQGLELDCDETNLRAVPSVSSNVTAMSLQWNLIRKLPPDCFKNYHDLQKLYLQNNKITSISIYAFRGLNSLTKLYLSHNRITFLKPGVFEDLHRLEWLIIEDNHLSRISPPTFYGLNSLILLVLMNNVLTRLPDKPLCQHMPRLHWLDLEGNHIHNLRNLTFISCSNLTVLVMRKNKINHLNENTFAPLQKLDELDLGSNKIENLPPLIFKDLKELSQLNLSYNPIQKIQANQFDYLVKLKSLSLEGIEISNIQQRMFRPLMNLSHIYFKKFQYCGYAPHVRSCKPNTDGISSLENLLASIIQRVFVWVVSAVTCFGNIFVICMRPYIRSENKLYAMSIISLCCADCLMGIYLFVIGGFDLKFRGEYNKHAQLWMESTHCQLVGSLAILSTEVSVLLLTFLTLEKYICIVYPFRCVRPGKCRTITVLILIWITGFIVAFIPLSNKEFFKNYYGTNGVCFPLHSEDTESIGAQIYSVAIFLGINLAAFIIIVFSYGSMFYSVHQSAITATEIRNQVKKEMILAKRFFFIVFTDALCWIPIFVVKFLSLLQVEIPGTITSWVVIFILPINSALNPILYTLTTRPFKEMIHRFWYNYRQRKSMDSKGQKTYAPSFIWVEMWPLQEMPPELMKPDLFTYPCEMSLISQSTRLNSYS
Outline: (§1)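 Receptor signalling is measured as CRE-driven β-galactosidase activity after H2 relaxin exposure, using a colorimetric substrate read at 570 nm. Values are normalised to 5 μM Forskolin, pooled from at least three independent triplicate experiments.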

RXFP1 Q49A/F50A = target: T2, RXFP1 Q49A/F50A (Homo sapiens, UniProt Q9HBX9, F72A/Q71A); conditions: construct Q49A/F50A, ±s.e.m.
T2 construct: cells expressing full-length RXFP1 and mutants; expressed in transfected cells; host or cells: HEK293T
T2 sequence (Q9HBX9 23-757 Q71A/F72A limits assumed): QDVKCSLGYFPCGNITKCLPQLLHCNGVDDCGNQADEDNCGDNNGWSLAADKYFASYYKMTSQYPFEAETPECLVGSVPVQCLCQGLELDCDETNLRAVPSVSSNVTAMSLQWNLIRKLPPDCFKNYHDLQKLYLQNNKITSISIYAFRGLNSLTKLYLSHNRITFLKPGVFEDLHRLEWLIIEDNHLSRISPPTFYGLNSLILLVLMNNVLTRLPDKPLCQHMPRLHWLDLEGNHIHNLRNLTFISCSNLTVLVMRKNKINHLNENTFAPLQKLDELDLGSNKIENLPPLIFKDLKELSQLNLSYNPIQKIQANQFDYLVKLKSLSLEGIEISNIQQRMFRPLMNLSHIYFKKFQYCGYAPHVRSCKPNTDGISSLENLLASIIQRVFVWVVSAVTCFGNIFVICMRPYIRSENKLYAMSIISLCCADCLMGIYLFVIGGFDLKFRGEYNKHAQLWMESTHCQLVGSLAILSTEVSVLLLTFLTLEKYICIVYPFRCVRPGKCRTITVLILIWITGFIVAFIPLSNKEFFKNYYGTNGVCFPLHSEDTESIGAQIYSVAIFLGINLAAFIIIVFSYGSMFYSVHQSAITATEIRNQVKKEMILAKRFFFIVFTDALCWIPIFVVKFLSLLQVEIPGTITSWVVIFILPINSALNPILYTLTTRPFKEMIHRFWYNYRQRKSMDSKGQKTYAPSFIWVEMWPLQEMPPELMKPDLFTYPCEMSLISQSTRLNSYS
Outline: as §1

RXFP1 G45A = target: T3, RXFP1 G45A (Homo sapiens, UniProt Q9HBX9, G67A); conditions: construct G45A, ±s.e.m.
T3 construct: transiently transfected human embryonic kidney (HEK) 293T cells expressing full-length RXFP1 and mutants; expressed in transfected cells; host or cells: HEK293T
T3 sequence (Q9HBX9 23-757 G67A limits assumed): T2 sequence (Q9HBX9 23-757 Q71A/F72A limits assumed) with G45A, A49Q, A50F
Outline: as §1

[1] = percentage of maximum response to 5 μM Forskolin

For “H2 relaxin: two-chain 6-kDa peptide hormone structurally related to insulin; recombinant human gene-2 H2 relaxin provided by Corthera”, the “H2 relaxin pEC50” value (RXFP1 E67A^ins; cAMP reporter) was 11.32±0.04 (3), the “H2 relaxin Emax” value (RXFP1 E67A^ins; [1]) was 110.15±6.43(3) % and the “H2 relaxin pEC50” value (RXFP1 Q49A/F50A; cAMP reporter) was 9.17±0.04 (3). The “H2 relaxin Emax” value (RXFP1 Q49A/F50A; [1]) was 98.2±8.8 (3) %, the “H2 relaxin pEC50” value (RXFP1 G45A; cAMP reporter) was 7.48±0.57 (4) and the “H2 relaxin Emax” value (RXFP1 G45A; [1]) was 135.94±31.68 (4) %.
